Assay results taken from the RNAGym collection of RNA variant scans (doi:10.1021/acssynbio.7b00057).

B1: Pistol ribozyme (parent)
chain: GGGUCGUUGUUCCAUAAUCGCGUGGAUAUGGCACGCAAGUUUCUACCGGGCACCGUAAAUGUCCGACUGGAGCCGUUCGGGCGGCUAUAAACAGACCUCAGGCCCGAAGCGUGGCGGCACCUGCCGCCGGUGGUAAAAAAGAUCGGAAGAGCACACGUCU

Variants of: B1
Assay: aptazyme ON/OFF ratio, guanine; higher = stronger switching; co-transcriptional cleavage with and without guanine

| Variant | aptazyme ON/OFF ratio |
| --- | --- |
| U7A U8C U10G U11G C12A C13A | 1.14 |
| U7A U8C U10G U11G C12A C13G | 1.15 |
| U7A U8C U10G U11G C12A C13U | 1.34 |
| U7A U8G G9A U10A U11A C12U C13A | 1.2 |
| U7A U8G G9A U10A U11A C12U C13G | 1.29 |
| U7A U8G G9A U10A U11A C12U C13U | 1.07 |
| U7A U8G G9A U10A U11C | 1.03 |
| U7A U8G G9A U10A U11A | 1.8 |
| U7A U8C U11A C13A | 1.14 |
| U7A U8C U11A C13G | 1.13 |
| U7A U8C U11A C13U | 1.15 |
| U7A U8C U11C C12U C13A | 1.28 |
| U7A U8C U11C C12U C13G | 1.29 |
| U7A U8C U11C C12U C13U | 1.29 |
| U7A U8G G9A U10A C12G C13A | 1.52 |
| U7A U8G G9A U10A C12G C13G | 1.33 |
| U7A U8G G9A U10A C12G C13U | 1.34 |
| U7A U8G G9A U10A U11C C12A | 1.44 |
| U7A U8G G9A U10A U11C C12U | 1.04 |
| U7A U8G G9A U10A U11C C12G | 1.37 |
| U7A U8G C12A | 1.22 |

| Variant | aptazyme ON/OFF ratio |
| --- | --- |
| U7A U8G C12G | 1.27 |
| U7A U8G C12U | 1.61 |
| U7A U8G G9A U10A U11A C12A C13G | 1.13 |
| U7A U8G G9A U10A U11A C12A C13A | 1.3 |
| U7A U8G G9A U10A U11A C12A C13U | 1.29 |
| U7A U8G C12A C13U | 1.31 |
| U7A U8G C12A C13A | 1.27 |
| U7A U8G C12A C13G | 1.25 |
| U7A U8C U10G U11A C12A C13U | 1.32 |
| U7A U8C U10G U11A C12A C13G | 1.15 |
| U7A U8C U11G C12A C13U | 1.16 |
| U7A U8C U11G C12A C13G | 1.12 |
| U7A U8C U11G C12A C13A | 1.07 |
| U7A U8G G9A U10A U11C C12A C13U | 1.16 |
| U7A U8G G9A U10A U11C C12A C13G | 1.33 |
| U7A U8G G9A U10A U11C C12A C13A | 1.32 |
| U7A U8C U10G U11C C13U | 1.27 |
| U7A U8C U10G U11C C13A | 1.18 |
| U7A U8C U10G U11C C13G | 1.18 |
| U7A U8G G9A U10A U11A C13U | 1.17 |
| U7A U8G G9A U10A U11A C13G | 1.17 |

| Variant | aptazyme ON/OFF ratio |
| --- | --- |
| U7A U8G G9A U10A U11A C13A | 1.19 |
| U7A U8G C12U C13G | 1.24 |
| U7A U8G C12U C13A | 1.23 |
| U7A U8G C12U C13U | 1.53 |
| U7A U8G | 1.13 |
| U7A U8G G9A C12A C13U | 1.35 |
| U7A U8G G9A C12A C13G | 1.19 |
| U7A U8G G9A C12A C13A | 1.41 |
| U7A U8C U11A C12G C13A | 1.06 |
| U7A U8C U11A C12G C13G | 1.1 |
| U7A U8C U11A C12G C13U | 1.15 |
| U7A U8C U11C C12A C13A | 1.44 |
| U7A U8C U11C C12A C13U | 1.37 |
| U7A U8C U11C C12A C13G | 1.31 |
| U7A U8C U11A C12U C13G | 1.24 |
| U7A U8C U11A C12U C13U | 1.28 |
| U7A U8C U11A C12U C13A | 1.15 |
| U7A U8G G9A U10A C13U | 1.26 |
| U7A U8G G9A U10A C13G | 1.18 |
| U7A U8G G9A U10A C13A | 1.41 |
| U7A U8G G9A U10A U11A C12A | 1.45 |

| Variant | aptazyme ON/OFF ratio |
| --- | --- |
| U7A U8G G9A U10A U11A C12U | 1.31 |
| U7A U8G G9A U10A U11A C12G | 1.46 |
| U7A U8C U11A C12A C13G | 1.16 |
| U7A U8C U11A C12A C13U | 1.27 |
| U7A U8C U11A C12A C13A | 1.2 |
| U7A U8G G9A C12A | 1.69 |
| U7A U8G G9A C12G | 1.79 |
| U7A U8G G9A C12U | 1.63 |
| U7A U8G G9A U10A C12A | 1.3 |
| U7A U8G G9A U10A C12G | 1.53 |
| U7A U8G G9A U10A C12U | 1.37 |
| U7A U8C U11C C13G | 1.13 |
| U7A U8C U11C C13A | 1.19 |
| U7A U8C U11C C13U | 1.17 |
| U7A U8C U11G C12A | 1.19 |
| U7A U8C U11G C12G | 1.09 |
| U7A U8C U11G C12U | 1.28 |
| U7A U8C U11C C12A | 1.39 |
| U7A U8C U11C C12G | 1.63 |
| U7A U8C U11C C12U | 1.46 |
